Laboratory results reported in article PMC6980855.
One block for each substance: values may come before it.

Key:
[1] = biological target: Alexa647-labeled Bax (single cysteine mutant 126C) (human (H. sapiens)) (UniProt Q07812)
[2] = biological target: Alexa568-labeled BimL-dCTS (mouse (M. musculus)); assay: FRET or BRET; with mouse liver mitochondria present; 4 nM Alexa568-labeled BimL or BimL-dCTS with increasing Alexa647-labeled Bax; fit in the sheet: Kd fitting advanced (donor fixed at 4)
[3] = biological target: Alexa568-labeled BimL-4E (mouse (M. musculus)); assay: FRET or BRET; in solution, no membranes; constant Alexa568-labeled BimL protein (donor; 4 nM by the legend of Figure 3C, 20 nM by that of Figure 6-figure supplement 1) with increasing Alexa647-labeled Bax (acceptor); FRET from the decrease in Alexa568 fluorescence; fit: one site, specific binding with Hill slope
Chain of Alexa568-labeled BimL-4E (mouse (M. musculus)) (main, as listed by the source): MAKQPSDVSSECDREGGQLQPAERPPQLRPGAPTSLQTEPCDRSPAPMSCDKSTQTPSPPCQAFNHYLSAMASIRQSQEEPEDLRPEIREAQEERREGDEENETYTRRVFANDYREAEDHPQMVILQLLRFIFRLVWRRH

[4] = biological target: Alexa568-labeled BimL-I125E (mouse (M. musculus)); assay: FRET or BRET; in solution, no membranes; 20 nM Alexa568-labeled BimL protein (donor) with increasing Alexa647-labeled Bcl-XL (acceptor); fit: one site, specific binding with Hill slope (BimL-dCTS: another model with a constant fixed at 4)
[5] = biological target: Alexa568-labeled BimL-CTS2A (mouse (M. musculus)); assay: as above
[6] = biological target: Alexa568-labeled BimL-L129E (mouse (M. musculus)); assay: as above
[7] = biological target: Alexa568-labeled BimL-4E (mouse (M. musculus)); assay: as above
[8] = biological target: Alexa568-labeled BimL-dCTS (mouse (M. musculus)); assay: as above
[9] = biological target: Alexa568-labeled BimL (single-cysteine mutant BimL Q41C) (mouse (M. musculus)); assay: as above
[10] = biological target: Alexa568-labeled BimL-I132E (mouse (M. musculus)); assay: as above
[11] = biological target: Alexa568-labeled BimL-V124E (mouse (M. musculus)); assay: as above
[12] = biological target: BimL-I125E (Alexa568-labeled, recombinant) (murine); assay: FRET or BRET; values of Figure 6B (Alexa568-labeled BimL mutant, Alexa647-labeled Bcl-XL); the sentence does not say whether in solution or with liposomes
[13] = biological target: BimL-dCTS (Alexa568-labeled, recombinant) (murine); assay: FRET or BRET; with mitochondrial-like liposomes present; constant Alexa568-labeled BimL protein (4 or 20 nM), Alexa647-labeled Bax or Bcl-XL titrated; apparent Kd
[14] = biological target: BimL-dCTS (Alexa568-labeled, recombinant) (murine); assay: FRET or BRET; in solution, no membranes; constant Alexa568-labeled BimL protein (donor; 4, 10 or 20 nM), Alexa647-labeled Bax or Bcl-XL (acceptor) titrated; FRET from the decrease in Alexa568 fluorescence; Tecan infinite M1000
[15] = biological target: BimL-dCTS (Alexa568-labeled, recombinant) (murine); assay: FRET or BRET; with mouse liver mitochondria present (Bak-/-; 0.2 mg/mL in Figure 7—figure supplement 1B); 4 nM Alexa568-labeled BimL protein, Alexa647-labeled Bax or Bcl-XL titrated; apparent Kd
[16] = biological target: Bax (single cysteine 126C, Alexa647-labeled, recombinant) (H. sapiens) (UniProt Q07812)
Chain of Bax (single cysteine 126C, Alexa647-labeled, recombinant) (H. sapiens) (Q07812 whole entry C62A): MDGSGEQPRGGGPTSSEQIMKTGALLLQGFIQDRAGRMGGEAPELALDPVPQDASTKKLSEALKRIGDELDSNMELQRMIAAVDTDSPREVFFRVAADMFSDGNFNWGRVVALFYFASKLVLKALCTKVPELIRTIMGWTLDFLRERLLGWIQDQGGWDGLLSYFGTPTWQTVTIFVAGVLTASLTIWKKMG

[17] = biological target: Bax (single cysteine 126C, Alexa647-labeled, recombinant) (H. sapiens) (UniProt Q07812); remark: listed apart in the source

Chain of Alexa647-labeled Bax (single cysteine mutant 126C) (human (H. sapiens)) (Q07812 other isoform, or with tags, fused parts or gaps mutant): as the sequence (Q07812 whole entry C62A) above

EC50 of Bax (100 nM) activation by BimL-L129E: ANTS/DPX release from liposomes [1]: 2170 nM
Substance: Alexa568-labeled BimL-L129E (natural protein)

EC50 of Bax (100 nM) activation by BimL-dCTS: ANTS/DPX release from liposomes [1]: 489000 nM
Substance: Alexa568-labeled BimL-dCTS (domain or fragment)

Kd [2]: 5.75 nM
Kd [3]: 74900 nM
Substance: Alexa647-labeled Bax (single cysteine mutant 126C) (from UniProt Q07812 1-192) (natural protein)

Kd [4]: 8.06 nM
Kd [5]: 10.9 nM
Kd [6]: 9.07 nM
Kd [7]: 70600 nM
Kd [8]: 17.2 nM
Kd [9]: 8.28 nM
Kd [10]: 9.75 nM
Kd [11]: 11.3 nM
Substance: Alexa647-labeled Bcl-XL (single cysteine mutant 152C) (from UniProt Q07817-1 1-233) (natural protein)

ANTS/DPX release after adding increasing Bax to isolated liposomes carrying ~5 nM membrane-bound BimL [16]: 60%
EC50 of Bax-mediated permeabilisation of ANTS/DPX liposomes (100 nM Bax) [17]: 1 nM
Substance: BimL (single cysteine Q41C, Alexa568-labeled, recombinant) (natural protein)

Second part, the substance before the results:

Substance: Alexa568-labeled BimL (single-cysteine mutant BimL Q41C) (natural protein)
EC50 of Bax (100 nM) activation by BimL: ANTS/DPX release from liposomes [1]: 0.549 nM

Substance: Alexa568-labeled BimL-I125E (natural protein)
EC50 of Bax (100 nM) activation by BimL-I125E: ANTS/DPX release from liposomes [1]: 105 nM

Substance: Alexa568-labeled BimL-I132E (natural protein)
EC50 of Bax (100 nM) activation by BimL-I132E: ANTS/DPX release from liposomes [1]: 2800 nM

Substance: Alexa568-labeled BimL-V124E (natural protein)
EC50 of Bax (100 nM) activation by BimL-V124E: ANTS/DPX release from liposomes [1]: 1.21 nM

Substance: Bcl-XL (single cysteine 152C, Alexa647-labeled, recombinant) (from UniProt Q07817-1 1-233) (natural protein)
Kd [12]: < 3 nM
Kd [13]: 35 nM
Kd [14]: < 16 nM
Kd [15]: 35 nM

Substance: BimL-I125E (Alexa568-labeled, recombinant) (natural protein)
EC50 of Bax-mediated permeabilisation of ANTS/DPX liposomes (100 nM Bax) [17]: 100 nM
